Assay results published in article doi:10.1101/2025.11.07.687251 (2025).

B1: GFP-ATG13(1–230):ATG101 [human] / GST-WIPI2 [not stated] (parent complex)
chain 1: METDLNSQDRKDLDKFIKFFALKTVQVIVQARLGEKICTRSSSSPTGSDWFNLAIKDIPEVTHEAKKALAGQLPAVGRSMCVEISLKTSEGDSMELEIWCLEMNEKCDKEIKVSYTVYNRLSLLLKSLLAITRVTPAYRLSRKQGHEYVILYRIYFGEVQLSGLGEGFQTVRVGTVGTPVGTITLSCAYRINLAFMSTRQFERTPPIMGIIIDHFVDRPYPSSSPMHPCN
chain 2: MNCRSEVLEVSVEGRQVEEAMLAVLHTVLLHRSTGKFHYKKEGTYSIGTVGTQDVDCDFIDFTYVRVSSEELDRALRKVVGEFKDALRNSGGDGLGQMSLEFYQKKKSRWPFSDECIPWEVWTVKVHVVALATEQERQICREKVGEKLCEKIINIVEVMNRHEYLPKMPTQSEVDNVFDTGLRDVQPYLYKISFQITDALGTSVTTTMRRLIKDTLAL
chain 3: MNLASQSGEAGAGQLLFANFNQDNTSLAVGSKSGYKFFSLSSVDKLEQIYECTDTEDVCIVERLFSSSLVAIVSLKAPRKLKVCHFKKGTEICNYSYSNTILAVKLNRQRLIVCLEESLYIHNIRDMKVLHTIRETPPNPAGLCALSINNDNCYLAYPGSATIGEVQVFDTINLRAANMIPAHDSPLAALAFDASGTKLATASEKGTVIRVFSIPEGQKLFEFRRGVKRCVSICSLAFSMDGMFLSASSNTETVHIFKLETVKEKPPEEPTTWTGYFGKVLMASTSYLPSQVTEMFNQGRAFATVRLPFCGHKNICSLATIQKIPRLLVGAADGYLYMYNLDPQEGGECALMKQHRLDGSLETTNEILDSASHDCPLVTQTYGAAAGKAYTDDLGAVGGACLEDEASALRLDEDSEHPPMILRTD
B2: GFP-ATG13(1–230):ATG101 [human] / GST-WIPI3 [not stated] (parent complex)
chain 1: B1 chain 1
chain 2: B1 chain 2
chain 3: not shown

Variants of: B1
Assay: GST beads binding assay (microscopy-based, Glutathione Sepharose beads); 20 mM HEPES (pH 7.5), 200 mM NaCl, 2 mM MgCl2, 1 mM TCEP; room temperature, 60 minutes; read off a plot

| response [A.U.] | Variant |
| --- | --- |
| ~21000 | chain 1 H214D, chain 1 F215D |

Variants of: B2
Assay: GST beads binding assay (microscopy-based, Glutathione Sepharose beads); 0.5 μM GST bait; 20 mM HEPES (pH 7.5), 200 mM NaCl, 2 mM MgCl2, 1 mM TCEP; room temperature, 60 minutes; read off a plot

| response [A.U.] | Variant |
| --- | --- |
| ~12000 | chain 1 H214D, chain 1 F215D |
